B1: Hairpin Ribozyme (parent)
chain: GUCCUCUUUCACGUGCGCGUGAAAGAGAGAAGUGAACCAGAGAAACACACGUUGUGGUAUAUUACCUGGUA

Variants of: B1
Test: self-cleavage, relative activity (ratio to wild type); higher = more cleavage; co-transcriptional

| Variant | self-cleavage |
| --- | --- |
| G57A U70A | 0.134 |
| A39G U70C | 0.372 |
| A30G U55G | 0.232 |
| U2G U67C | 0.102 |
| A41C G69U | 0.341 |
| U9A C18U | 0.775 |
| C6A A45C | 0.12 |
| G54U U70G | 0.43 |
| G34C U60A | 1.16 |
| G15C U55G | 0.487 |
| U33C G57A | 0.242 |
| G29A A44U | 0.226 |
| U20A U55G | 0.256 |
| G34C G54A | 1.2 |
| G1C A23C | 0.103 |
| C4U G32C | 0.114 |
| U7A A64U | 0.248 |
| G1U A59G | 0.216 |
| A11G C48A | 0.0849 |
| C38G A71U | 0.138 |
| U5C A59U | 0.0936 |
| U8C C16A | 0.84 |
| G15A A61C | 0.161 |
| U62C | 0.268 |

| Variant | self-cleavage |
| --- | --- |
| C16A A30U | 0.154 |
| C3U U55A | 0.0909 |
| G40C C50U | 0.198 |
| A59C U63G | 0.164 |
| C4U G29A | 0.107 |
| A47U U58C | 0.133 |
| C16G A30C | 0.177 |
| A61C C66G | 0.101 |
| G17U C50U | 0.326 |
| G1U A41G | 0.0954 |
| A26C | 0.708 |
| G17C G42C | 0.306 |
| G25A | 0.634 |
| C6A G57U | 0.246 |
| U20G G40A | 0.296 |
| A49U C50A | 0.293 |
| C3A A44G | 0.126 |
| A28C G32A | 0.172 |
| A24C A31C | 0.209 |
| C46G G56A | 0.127 |
| A11C G25U | 0.548 |
| U7G C65U | 0.369 |
| G34C U67C | 0.785 |
| U55G A61C | 0.21 |

| Variant | self-cleavage |
| --- | --- |
| A23G C38A | 0.239 |
| A47C G68A | 0.268 |
| A45G U58G | 0.199 |
| G69U U70G | 0.299 |
| A23U A47G | 0.11 |
| A23U A47U | 0.105 |
| A49C C50U | 0.122 |
| C10U G29C | 0.159 |
| A39U A43G | 0.103 |
| A26C U55A | 0.194 |
| G32C C46A | 0.109 |
| C4A C50U | 0.13 |
| U33C G42A | 0.0915 |
| G13A U20G | 0.723 |
| G1C G21U | 0.274 |
| U5G A39U | 0.11 |
| G17A C48U | 0.176 |
| G40U G54C | 0.155 |
| A11U U67A | 0.117 |
| A22U A44U | 0.173 |
| U33C G51A | 0.231 |
| U2C G57U | 0.131 |
| A49U U60G | 0.0756 |
| G40U A59U | 0.14 |

| Variant | self-cleavage |
| --- | --- |
| G40U A71U | 0.131 |
| U5C G40U | 0.19 |
| U20A A28G | 0.833 |
| C3A C65U | 0.222 |
| G25A G68A | 0.164 |
| G13C G42C | 0.3 |
| G13C G29C | 0.189 |
| G25A C65A | 0.615 |
| G25A C65G | 0.215 |
| A31G A47G | 0.117 |
| C12G G68U | 0.193 |
| A49C U62C | 0.22 |
| G21A A23C | 0.683 |
| G57C C65G | 0.154 |
| G32C G42C | 0.137 |
| U5C G13C | 0.47 |
| A36G C46U | 0.189 |
| C4G U63C | 0.112 |
| G34C U53G | 1.03 |
| C6U U8A | 0.538 |
| G13A C38U | 0.396 |
| G21C U62A | 0.206 |
| U5A U33G | 0.131 |
| U9C U14C | 0.533 |

| Variant | self-cleavage |
| --- | --- |
| G25U A43G | 0.183 |
| G13A A47C | 0.352 |
| A41U U52G | 1.07 |
| U14C C46G | 0.0498 |
| U7G G42U | 0.299 |
| G15U G68C | 0.137 |
| C16A A59C | 0.213 |
| G25A A31C | 0.128 |
| C18U U60G | 0.719 |
| C16G G51A | 0.798 |
| A35C A45U | 0.0921 |
| C3U U70G | 0.371 |
| A26U A35U | 0.302 |
| U9C U67G | 0.283 |
| U8G G42U | 0.254 |
| A11U C48A | 0.215 |
| A26C A45U | 0.182 |
| C18U U33C | 0.172 |
| A31C G42C | 0.163 |
| C18U A30U | 0.203 |
| G27U A44C | 0.0839 |
| G1C U52C | 0.132 |
| A22C A31G | 0.642 |
| G1C A44C | 0.125 |

| Variant | self-cleavage |
| --- | --- |
| C48G U52C | 0.218 |
| G27A U53G | 0.518 |
| A39U A44G | 0.119 |
| A24C G54C | 0.313 |
| C50G G54C | 0.634 |
| C46A U62C | 0.193 |
| G29U A64U | 0.14 |
| G15C G32A | 0.263 |
| U7A U67A | 0.223 |
| C12G A71U | 0.655 |
| C12G A71C | 1.3 |
| A28G G34C | 0.999 |
| A61U U63C | 0.0398 |
| G21C G69U | 0.155 |
| G25U A44U | 0.113 |
| U20A A44C | 0.202 |
| C48G G56A | 0.124 |
| G17U C18U | 0.926 |
| A64G G69C | 0.142 |
| A35C U70G | 0.676 |
| U63A A64C | 0.0838 |
| A30U | 0.142 |
| A30G | 0.153 |
| C16G A41G | 0.593 |

| Variant | self-cleavage |
| --- | --- |
| C12A C38U | 0.482 |
| C38U A49U | 0.137 |
| A23C G40U | 0.175 |
| G51C U60C | 1.23 |
| A28G C38A | 0.168 |
| C65A G69C | 0.224 |
| G13U A26C | 0.416 |
| C6G C37A | 0.158 |
| G32A U62G | 0.0972 |
| C4G A39G | 0.0945 |
| A47C C65U | 0.219 |
| U2G G13U | 0.246 |
| A30U G34A | 0.216 |
| C3A U33A | 0.0769 |
| G29C A35U | 0.0473 |
| G19A G34C | 1.32 |
| C12U G17A | 0.91 |
| G25C U58A | 0.308 |
| C18G U33G | 0.123 |
| A22G G54C | 0.35 |
| A43U U70A | 0.145 |
| C6G G42A | 0.0986 |
| C48U G57A | 0.147 |
